In US12214076B2, “Drug delivery vehicles for atherosclerosis nanomedicine” (Northwestern University, priority 2019, dated 2025):
Peptide text beside a SMILES is read from it. * marks the point of attachment. Palmitoyl = CCCCCCCCCCCCCCCC(=O)*

Tests used:
[1] = Small angle x-ray scattering (SAXS) of PA nanofibers; format: physicochemical
Procedure: Small angle x-ray scattering (SAXS): SAXS characterization of the PA nanofibers was performed at the Advanced Photon Source in the Argonne National Laboratory on beamline 5-ID-D, DuPont-Northwestern-Dow Collaborative Access Team Synchrotron Research Center. Samples were prepared at 5 mM in PBS solution, aged at least 24 hours at 4° C., and analyzed in 1.5 mm quartz capillaries (Charles Supper) at 17 keV with a charged couple device photon detector located 245 cm behind the sample. Scattering intensities were collected using wave vector q range of 0.0024 to 0.40 Å^−1. q represents the scattering vector and is calculated as q=4π sin (θ)/λ, with θ as the scattering angle between the incident beam and detector and […] the X-ray wavelength. The plots of scattering intensity versus q were obtained using NIST software Igor Pro v8. The scattering intensities of PBS were subtracted from the PA samples using the Irena SAS macro, and the resulting plots were fitted using NCNR Analysis macro to a polydisperse core shell cylinder model.

J774.2 macrophage = test: Cytocompatibility, MUSE Count and Viability Assay (Example 2); format: cell-based, mouse; conditions: 24 hours of treatment, 32 μM Ac2-26
Procedure: Macrophage culture and characterization: J774.2 murine macrophages (Sigma-Aldrich) were expanded at 4-9×10^5 cells/mL in growth media consisting of Dulbecco's Modified Eagle's Medium (Sigma-Aldrich) containing 4.5 g/L glucose, 2 mM L-glutamine, 10% v/v FBS, 100 U/m penicillin, and 100 μg/mL streptomycin. Cells were passaged using Accutase™ (StemCell Technologies) and used at passage 6-9 for all experiments. The cells were detached with Accutase™ and gentle scraping, counted, and re-suspended in flow cytometry buffer containing 2% w/v bovine serum albumin (BSA, heat shock fraction free of proteases, globulin, and fatty acids, Sigma-Aldrich) and 0.1% w/v sodium azide (Sigma-Aldrich). To minimize non-specific binding of immunoglobin to Fc receptors, macrophages were incubated with anti-mouse CD16/32 antibody (TrueStain FcX™, Biolegend) at 1 μg/1×10^5 cells for 10 minutes at 4° C. […] All samples were analyzed using Attune NxT Acoustic Focusing Cytometer (Thermo Fisher) with at least 2000 events counted per condition.
Cytocompatibility: Macrophages were seeded at 2.1×10^5 cells/cm^2 on 24 well plates and treated with 32 μM of Ac2-26 or 320 μM PA co-assemblies (final Ac2-26 concentration of 32 μM) for 24 hours. […] Cells were detached by Accutase treatment for 20 minutes and counted using a MUSE® Count and Viability Assay Kit and cytometer (Emd millipore).

Zeta potential = format: physicochemical
Procedure: Zeta potential: The PA charge was characterized using a Zetasizer Nano ZS (Malvern). Samples were prepared at 0.5 mM and passed through a 0.2 μm filter (Acrodisc® Syringe Filters with Supor® Membrane, Pall). At least 10 scans were taken per measurement, three measurements per sample at 25° C. and 37° C.

[2] = test system: atherosclerotic LDLR KO mice; test: In vivo proof of concept: PA nanofiber localization in aortic root; set-up: species or system mouse; conditions: 24 h after intravenous injection, high fat diet 14 weeks, 6 mg kg-1 PA
Procedure: Mouse Model of Atherosclerosis and In Vivo Proof of Concept: LDLR-KO mice were fed a high fat “Western” diet (Teklad TD.88137) starting at 4 weeks of age. This diet consisted of 20% fat, 0.2% cholesterol, and 34% high sucrose. LDLR-KO mice fed this diet typically develop severe hypercholesterolemia (>800 mg/dL) and hypertriglyceridemia (>300 mg/dL) after only 2 weeks, and by 12 weeks on the high fat diet, atherosclerotic lesions are detected in the aortic root and aortic arch. After 14 weeks on the high fat diet, mice received intravenous injections of PA nanofibers dissolved in PBS (dorsal penile vein in males) under sterile conditions. Mice were briefly anesthetized for injection with inhaled isoflurane. After injection, mice were monitored and allowed to recover from anesthesia in a heated oxygen chamber. […] PA fluorescence was assessed with the HE CY3 filter (Zeiss filter #43) using excitation and emission wavelengths of 550-575 nm and 605-670 nm, respectively. Nuclear staining was performed with DAPI (4′,6-Diamidino-2-Phenylindole, Dilactate, ThermoFisher, Chicago, IL), and assessed with the DAPI filter (Zeiss filter #49) using excitation and emission wavelengths of 365-395 and 445-450 nm, respectively. Tissue autofluorescence was assessed with the green fluorescent protein filter (Zeiss filter #38) using excitation and emission wavelengths of 470-495 and 525-550 nm, respectively. […]

Compound	SAXS slope of Guinier regime in the low q region ([1]; 5 mM in PBS)	core radius (polydisperse core-shell cylinder model) ([1]; SAXS fit)	radial shell thickness (polydisperse core-shell cylinder model) ([1]; SAXS fit)	J774.2 macrophage viability (J774.2 macrophage)	overall charge (zeta potential) (Zeta potential; 25° C.)	overall charge (zeta potential) (Zeta potential; 37° C.)	localization of nanofibers to areas of atherosclerotic plaque in the aortic root [2]
10% MMP-Ac2-26 PA: co-assembly of 10 mol % MMP-Ac2-26 PA, 50 mol % E2 filler PA, and 40% ApoA1 PA (VVAAEEGGGPQGIWGQGKAMVSEFLKQAWFIENEEQEYVQTVK)	−1.8	2.1 nm	2.0 nm	No significant differences	−18.1±0.5 mV	maintained	–
CCCCCCCCCCCCCCCC(=O)N[C@H](C(=O)N[C@H](C(=O)N[C@@H](C)C(=O)N[C@@H](C)C(=O)N[C@@H](CCC(=O)O)C(=O)N[C@@H](CCC(=O)O)C(=O)NCC(=O)N[C@@H](CC(=O)O)C(=O)N[C@@H](Cc1c[nH]c2ccccc12)C(=O)N[C@@H](Cc1ccccc1)C(=O)N[C@@H](CCCCN)C(=O)N[C@@H](C)C(=O)N[C@@H](Cc1ccccc1)C(=O)N[C@@H](Cc1ccc(O)cc1)C(=O)N[C@@H](CC(=O)O)C(=O)N[C@@H](CCCCN)C(=O)N[C@H](C(=O)N[C@@H](C)C(=O)N[C@@H](CCC(=O)O)C(=O)N[C@@H](CCCCN)C(=O)N[C@@H](Cc1ccccc1)C(=O)N[C@@H](CCCCN)C(=O)N[C@@H](CCC(=O)O)C(=O)N[C@@H](C)C(=O)N[C@@H](Cc1ccccc1)C(N)=O)C(C)C)C(C)C)C(C)C [ApoA1 PA] (Palmitoyl-VVAAEEGDWFKAFYDKVAEKFKEAF-NH2)	–	–	–	–	–	–	localization of the nanofibers to areas of atherosclerotic plaque
